Measurements reported in IntAct's records for PubMed 23112296.

B1: Keratin, type I cytoskeletal 18 (Homo sapiens), P05783 (parent)
chain: MSFTTRSTFSTNYRSLGSVQAPSYGARPVSSAASVYAGAGGSGSRISVSRSTSFRGGMGSGGLATGIAGGLAGMGGIQNEKETMQSLNDRLASYLDRVRSLETENRRLESKIREHLEKKGPQVRDWSHYFKIIEDLRAQIFANTVDNARIVLQIDNARLAADDFRVKYETELAMRQSVENDIHGLRKVIDDTNITRLQLETEIEALKEELLFMKKNHEEEVKGLQAQIASSGLTVEVDAPKSQDLAKIMADIRAQYDELARKNREELDKYWSQQIEESTTVVTTQSAEVGAAETTLTELRRTVQSLEIDLDSMRNLKASLENSLREVEARYALQMEQLNGILLHLESELAQTRAEGQRQAQEYEALLNIKVKLEAEIATYRRLLEDGEDFNLGDALDSSNSMQTIQKTTTRRIVDGKVVSETNDTKVLRH

Variants of: B1
Conditions: with becn1_human BECN1, Q14457
Sequence of becn1_human BECN1, Q14457 (Q14457 whole entry): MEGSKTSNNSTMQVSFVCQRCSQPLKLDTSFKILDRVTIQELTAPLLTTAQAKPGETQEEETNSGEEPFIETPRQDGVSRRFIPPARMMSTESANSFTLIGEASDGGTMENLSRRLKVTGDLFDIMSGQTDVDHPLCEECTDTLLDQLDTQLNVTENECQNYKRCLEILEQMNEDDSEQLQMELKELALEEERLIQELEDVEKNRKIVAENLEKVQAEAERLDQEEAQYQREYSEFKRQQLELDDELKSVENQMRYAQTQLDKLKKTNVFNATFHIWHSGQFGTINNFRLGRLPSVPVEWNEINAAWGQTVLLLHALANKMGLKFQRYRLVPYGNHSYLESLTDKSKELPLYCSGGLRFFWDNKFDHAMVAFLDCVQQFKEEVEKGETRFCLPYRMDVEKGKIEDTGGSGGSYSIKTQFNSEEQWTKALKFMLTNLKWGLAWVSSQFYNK

Variant	effect of a mutation on the interaction
S34A	disrupting interaction strength
